Target: SP-1 (rhSP-1) (Homo sapiens, UniProt P08047 2-785)
Assay: EMSA; 300 ng rhSP-1, 125 fmol probe; competed by 50x/100x cold probe; Promega Gel Shift Assay System (binding buffer, salt and pH not given); 10 min preincubation then 20 min with probe at 25 C; 4% non-denaturing PAGE
Conditions: protein: recombinant; label: 32P 5' end; blunt

SP-1 (rhSP-1), sequence (P08047 2-785): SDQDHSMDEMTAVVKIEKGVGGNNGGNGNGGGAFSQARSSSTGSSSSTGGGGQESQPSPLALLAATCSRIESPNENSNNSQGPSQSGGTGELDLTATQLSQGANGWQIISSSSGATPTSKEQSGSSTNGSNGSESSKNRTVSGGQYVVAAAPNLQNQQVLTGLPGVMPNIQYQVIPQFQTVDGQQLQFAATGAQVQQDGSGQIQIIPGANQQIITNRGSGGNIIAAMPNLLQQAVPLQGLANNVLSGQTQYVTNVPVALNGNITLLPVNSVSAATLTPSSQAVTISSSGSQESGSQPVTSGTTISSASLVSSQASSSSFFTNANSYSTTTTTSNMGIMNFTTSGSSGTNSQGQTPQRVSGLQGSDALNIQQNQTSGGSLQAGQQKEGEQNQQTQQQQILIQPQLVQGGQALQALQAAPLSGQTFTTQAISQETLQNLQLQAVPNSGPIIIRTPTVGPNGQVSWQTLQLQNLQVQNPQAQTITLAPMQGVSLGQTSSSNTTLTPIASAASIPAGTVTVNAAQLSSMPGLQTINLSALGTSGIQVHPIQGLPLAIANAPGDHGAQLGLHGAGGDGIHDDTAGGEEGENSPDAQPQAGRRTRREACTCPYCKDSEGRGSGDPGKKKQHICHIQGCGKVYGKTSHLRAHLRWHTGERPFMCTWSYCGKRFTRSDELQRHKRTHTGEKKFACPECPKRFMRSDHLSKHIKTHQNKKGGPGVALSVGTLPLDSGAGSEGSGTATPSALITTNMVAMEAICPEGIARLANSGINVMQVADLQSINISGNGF

B1: dsA5pInDel (CHRNA5 promoter rs3841324 region) (dsDNA)
DNA 1: GATTGGGCGGGGCCAGAGGGAAATAGGGG
DNA 2: CCCCTATTTCCCTCTGGCCCCGCCCAATC
binding result: binds
